{"source": "the supplement of paper PMC12855868", "parents": {"B1": {"name": "library; numbered along this chain (parent)", "chain": "MAAAGGARLLRAASAVLGGPAGRWLHHAGSRAGSSGLLRNRGPGGSAEASRSLSVSARARSSSEDKITVHFINRDGETLTTKGKVGDSLLDVVVENNLDIDGFGACEGTLACSTCHLIFEDHIYEKLDAITDEENDMLDLAYGLTDRSRLGCQICLTKSMDNMTVRVPETVADARQSIDVGKTS"}}, "variants_of": "B1", "assay": "scaled log2 fold change in cell abundance, elesclomol vs control (0 = silent mean, 1 = nonsense mean) (scaled log2 ratio); higher = higher viability under elesclomol (loss of FDX1 cuproptosis function)", "settings": "glucose 10 mM", "key": {"[1]": {"settings": "with ABC1 FDX1 KO, elesclomol 5 nM, 14 days"}, "[2]": {"settings": "with HEK293T FDX1 KO, elesclomol 40 nM, 11 days"}}}
{"variant": "MAAAGGARLLRAASAVLGGPAGRWLHHAGSRAGSSGLLRNRGPGGSAEASRSLSVSARARSSSEDKITVHFINRDGETLTTKGKVGDSLLDVVVENNLDIDGFGACEGTLACSTCHLIFEDHIYRKLDAITDEENDMLDLAYGLTDRSRLGCQICLTKSMDNMTVRVPETVADARQSIDVGKTS", "values": [{"measurement": "scaled log2 fold change", "setting": "[1]", "result": 0.109}, {"measurement": "scaled log2 fold change", "setting": "[2]", "result": -0.189}]}
{"variant": "MAAAGGARLLRAASAVLGGPAGRWLHHAGSRAGSSGLLRNRGPGGSAEASRSLSVSARDRSSSEDKITVHFINRDGETLTTKGKVGDSLLDVVVENNLDIDGFGACEGTLACSTCHLIFEDHIYEKLDAITDEENDMLDLAYGLTDRSRLGCQICLTKSMDNMTVRVPETVADARQSIDVGKTS", "values": [{"measurement": "scaled log2 fold change", "setting": "[1]", "result": -0.0282}, {"measurement": "scaled log2 fold change", "setting": "[2]", "result": 0.274}]}
{"variant": "MAAAGGARLLRAASAVLGGPAGRWLHHAGSRAGSSGLLRNRGPGGSAEASRSLSVSARARSSSEDKITVHFINRDGETLTTKGKVGDSLLDVVVENNLDIDGFGACEGTLACSTCHLIFEDHIYEKLDAITDEENDMLQLAYGLTDRSRLGCQICLTKSMDNMTVRVPETVADARQSIDVGKTS", "values": [{"measurement": "scaled log2 fold change", "setting": "[1]", "result": -0.0276}, {"measurement": "scaled log2 fold change", "setting": "[2]", "result": 0.00203}]}
{"variant": "MAAAGGARLLRAASAVLGGPAGRWLHHAGSRAGSSGLLRNRGPGGSAEASRSLSVSARARSSSEDKITVHFINRDGETLTTKGKVGDSLLQVVVENNLDIDGFGACEGTLACSTCHLIFEDHIYEKLDAITDEENDMLDLAYGLTDRSRLGCQICLTKSMDNMTVRVPETVADARQSIDVGKTS", "values": [{"measurement": "scaled log2 fold change", "setting": "[1]", "result": -1.31}, {"measurement": "scaled log2 fold change", "setting": "[2]", "result": -0.476}]}
{"variant": "MAAAGGARLLRAASAVLGGPAGRWLHHAGSRAGSSGLLRNRGPGGSAEASRSLSVSAIARSSSEDKITVHFINRDGETLTTKGKVGDSLLDVVVENNLDIDGFGACEGTLACSTCHLIFEDHIYEKLDAITDEENDMLDLAYGLTDRSRLGCQICLTKSMDNMTVRVPETVADARQSIDVGKTS", "values": [{"measurement": "scaled log2 fold change", "setting": "[1]", "result": -0.339}, {"measurement": "scaled log2 fold change", "setting": "[2]", "result": 0.608}]}
{"variant": "MAAAGGARLLRAASAVLGGPAGRWLHHAGSRAGSSGLLRNRGPGGSAEASRSLSVSARARSSSEDKITVHFINRDGETLTTKGKVGDSLLDVVVENNLDIDGFGACEGTLACSTCHTIFEDHIYEKLDAITDEENDMLDLAYGLTDRSRLGCQICLTKSMDNMTVRVPETVADARQSIDVGKTS", "values": [{"measurement": "scaled log2 fold change", "setting": "[1]", "result": 0.178}, {"measurement": "scaled log2 fold change", "setting": "[2]", "result": 0.185}]}
{"variant": "MAAAGGARLLRAASAVLGGPAGRWLHHAGSRAGSSGLLRNRGPGGSAEASRSLSVSARARSSSEDKITVHFINRDGETLTTKGKVGDSLLDVVVENNLDIDGFGACEGTLACSTCHLIFEDHIYEKLDAITDEENDMLDLAYGLTDRSRLGCQICLTKSMDNMTMRVPETVADARQSIDVGKTS", "values": [{"measurement": "scaled log2 fold change", "setting": "[1]", "result": -0.123}, {"measurement": "scaled log2 fold change", "setting": "[2]", "result": -0.424}]}
{"variant": "MAAAGGARLLRAASAVLGGPAGRWLHHAGSRAGSSGLLRNRGPGGSAEASRSLSVSARARSSSEDKITVHFINRDGETLTTKGKVGDSLLDVVVENNLDIDGFGACEGMLACSTCHLIFEDHIYEKLDAITDEENDMLDLAYGLTDRSRLGCQICLTKSMDNMTVRVPETVADARQSIDVGKTS", "values": [{"measurement": "scaled log2 fold change", "setting": "[1]", "result": -0.267}, {"measurement": "scaled log2 fold change", "setting": "[2]", "result": 1.01}]}
